Assay results: patent publication US20260098059A1 (ENDOMET BIOSCIENCES, published 2026)
Where “and” joins values, the source holds several entries; their conditions need not be identical. Equal values may be shown once.

T1: β-catenin (UniProt P35222 134-665, limits assumed, biotinylated in the SPR and plate assays)
T1 construct: also called beta catenin; biotinylated β-catenin
T1 sequence (looked up): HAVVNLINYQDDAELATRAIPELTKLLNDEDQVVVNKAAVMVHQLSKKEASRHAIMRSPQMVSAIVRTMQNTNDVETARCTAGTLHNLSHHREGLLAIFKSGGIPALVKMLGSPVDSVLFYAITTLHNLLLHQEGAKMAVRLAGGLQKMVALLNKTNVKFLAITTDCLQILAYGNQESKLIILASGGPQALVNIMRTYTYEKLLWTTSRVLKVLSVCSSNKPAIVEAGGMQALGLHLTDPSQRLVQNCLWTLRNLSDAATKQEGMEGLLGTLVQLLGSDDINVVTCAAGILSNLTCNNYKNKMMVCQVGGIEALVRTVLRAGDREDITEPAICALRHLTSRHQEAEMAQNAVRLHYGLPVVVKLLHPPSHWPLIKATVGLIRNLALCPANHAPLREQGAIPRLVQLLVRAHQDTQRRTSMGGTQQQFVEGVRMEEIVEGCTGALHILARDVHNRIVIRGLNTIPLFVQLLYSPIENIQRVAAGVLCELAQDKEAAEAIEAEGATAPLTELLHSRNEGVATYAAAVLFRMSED

B1: SEQ ID NO: 164 (peptide)
peptide: LWFLICFWG
HELM: PEPTIDE1{[Nle].W.F.L.I.C.F.W.G}$$$$V2.0
SMILES: CCCC[C@H](N)C(=O)N[C@@H](Cc1c[nH]c2ccccc12)C(=O)N[C@@H](Cc1ccccc1)C(=O)N[C@@H](CC(C)C)C(=O)N[C@H](C(=O)N[C@@H](CS)C(=O)N[C@@H](Cc1ccccc1)C(=O)N[C@@H](Cc1c[nH]c2ccccc12)C(=O)NCC(=O)O)[C@@H](C)CC
B2: SEQ ID NO: 182 (peptide)
peptide: KWILISFWE
HELM: PEPTIDE1{K.W.I.L.I.S.F.W.E}$PEPTIDE1,PEPTIDE1,1:R3-9:R3$$$V2.0
SMILES: CC[C@H](C)[C@@H]1NC(=O)[C@H](CC(C)C)NC(=O)[C@H]([C@@H](C)CC)NC(=O)[C@H](Cc2c[nH]c3ccccc23)NC(=O)[C@@H](N)CCCCNC(=O)CC[C@@H](C(=O)O)NC(=O)[C@H](Cc2c[nH]c3ccccc23)NC(=O)[C@H](Cc2ccccc2)NC(=O)[C@H](CO)NC1=O
B3: SEQ ID NO: 184 (peptide)
peptide: KWILISAWE
HELM: PEPTIDE1{K.W.I.L.I.S.A.W.E}$PEPTIDE1,PEPTIDE1,1:R3-9:R3$$$V2.0
SMILES: CC[C@H](C)[C@@H]1NC(=O)[C@H](CC(C)C)NC(=O)[C@H]([C@@H](C)CC)NC(=O)[C@H](Cc2c[nH]c3ccccc23)NC(=O)[C@@H](N)CCCCNC(=O)CC[C@@H](C(=O)O)NC(=O)[C@H](Cc2c[nH]c3ccccc23)NC(=O)[C@H](C)NC(=O)[C@H](CO)NC1=O
B4: SEQ ID NO: 185 (peptide)
peptide: KWFLICFWE
HELM: PEPTIDE1{[ac].K.W.F.L.I.C.F.W.E}$PEPTIDE1,PEPTIDE1,2:R3-10:R3$$$V2.0
SMILES: CC[C@H](C)[C@@H]1NC(=O)[C@H](CC(C)C)NC(=O)[C@H](Cc2ccccc2)NC(=O)[C@H](Cc2c[nH]c3ccccc23)NC(=O)[C@@H](NC(C)=O)CCCCNC(=O)CC[C@@H](C(=O)O)NC(=O)[C@H](Cc2c[nH]c3ccccc23)NC(=O)[C@H](Cc2ccccc2)NC(=O)[C@H](CS)NC1=O
B5: SEQ ID NO: 188 (peptide)
peptide: KWILISAWE
HELM: PEPTIDE1{[ac].K.W.I.L.I.S.A.W.E}$PEPTIDE1,PEPTIDE1,2:R3-10:R3$$$V2.0
SMILES: CC[C@H](C)[C@@H]1NC(=O)[C@H](CC(C)C)NC(=O)[C@H]([C@@H](C)CC)NC(=O)[C@H](Cc2c[nH]c3ccccc23)NC(=O)[C@@H](NC(C)=O)CCCCNC(=O)CC[C@@H](C(=O)O)NC(=O)[C@H](Cc2c[nH]c3ccccc23)NC(=O)[C@H](C)NC(=O)[C@H](CO)NC1=O
B6: SEQ ID NO: 191 (peptide)
peptide: MWFLICAWD
HELM: PEPTIDE1{[O=C(CCCN[*:1])[*:2]].M.W.F.L.I.C.A.W.D}$PEPTIDE1,PEPTIDE1,1:R1-10:R3$$$V2.0
SMILES: CC[C@H](C)[C@@H]1NC(=O)[C@H](CC(C)C)NC(=O)[C@H](Cc2ccccc2)NC(=O)[C@H](Cc2c[nH]c3ccccc23)NC(=O)[C@H](CCSC)NC(=O)CCCNC(=O)C[C@@H](C(=O)O)NC(=O)[C@H](Cc2c[nH]c3ccccc23)NC(=O)[C@H](C)NC(=O)[C@H](CS)NC1=O

Key:
β-catenin [1] = target: T1, β-catenin; test: competitive FP
Summary of the method: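 Competitive fluorescence polarization with inhibitor peptide serially diluted from 10 nM to 30 uM; polarization read at 470 nm excitation, 520 nm emission. Experiments performed three times.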

β-catenin [2] = target: T1, β-catenin; test: cell-based or functional assay

Kd (β-catenin [1]) | Wnt Reporter EC50 (β-catenin [2]) | Binder
> 0.4 µM and ≤ 1 µM | ≤ 7.5 µM | B1
≤ 0.4 µM | ≤ 7.5 µM | Ac-MWILISFWG-OH [SEQ ID NO: 165]
> 0.4 µM and ≤ 1 µM | > 22.5 µM and ≤ 30 µM | B2
> 10 µM and ≤ 30 µM | ≤ 7.5 µM | B3
≤ 0.4 µM | > 22.5 µM and ≤ 30 µM | B4
> 10 µM and ≤ 30 µM | ≤ 7.5 µM | B5
> 0.4 µM and ≤ 1 µM | > 7.5 µM and ≤ 15 µM | B6
> 0.4 µM and ≤ 1 µM | ≤ 7.5 µM | Ac-MWFLICFWG-OH [SEQ ID NO: 198]
